Values quoted from earlier work in paper PMC2879597.

Target: hIL-10/sIL-10R1 complex (Homo sapiens) (UniProt P22301)
Sequence (P22301 19-178, chain 1 of 2): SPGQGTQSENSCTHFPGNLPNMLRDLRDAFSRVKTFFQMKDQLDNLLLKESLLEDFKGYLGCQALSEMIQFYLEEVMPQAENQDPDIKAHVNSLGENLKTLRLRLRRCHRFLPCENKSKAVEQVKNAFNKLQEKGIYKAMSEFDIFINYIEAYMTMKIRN
Sequence (Q13651 22-235, chain 2 of 2, further chain): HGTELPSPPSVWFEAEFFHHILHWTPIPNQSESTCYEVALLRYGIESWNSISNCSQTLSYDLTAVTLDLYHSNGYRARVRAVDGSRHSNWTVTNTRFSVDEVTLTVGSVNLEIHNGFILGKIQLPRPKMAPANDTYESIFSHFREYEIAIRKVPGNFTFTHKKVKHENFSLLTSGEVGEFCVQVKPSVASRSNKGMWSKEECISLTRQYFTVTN

Chain of sIL-10R2 ECD (Q08334 20-220): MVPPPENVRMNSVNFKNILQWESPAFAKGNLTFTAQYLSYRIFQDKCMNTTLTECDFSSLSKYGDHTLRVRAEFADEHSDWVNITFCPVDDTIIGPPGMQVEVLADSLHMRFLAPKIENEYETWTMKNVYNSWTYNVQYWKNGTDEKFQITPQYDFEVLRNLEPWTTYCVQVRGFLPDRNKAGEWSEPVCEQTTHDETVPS

In the case of sIL-10R2 ECD (from UniProt Q08334), the Kd is listed as 250 µM.
